From paper PMC5962103, “SHOC1 is a ERCC4-(HhH)2-like protein, integral to the formation of crossover recombination intermediates during mammalian meiosis”

B1: single-stranded DNA (#1) (ssDNA)
DNA: ACGCTGCCGAATTCTACCAGTGCCTTGCTAGGACATCTTTGCCCACCTGCAGGTTCACCC
B2: D-loop (#1, #6, #7) (structured_DNA)
DNA 1: B1 DNA
DNA 2: GGGTGAACCTGCAGGTGGGCAGGAAGGCAAAATGCCGCAACTGGTAGAATTCGGCAGCGT
DNA 3: TTGCGGCATTTTGCCTTCCTCGGCCAGTGAATTCGAGCTC

Target: SHOC1 570-1111 (Homo sapiens, UniProt Q5VXU9 570-1111)
Test: EMSA; 2 mM Mg2+; 20 mM Tris-HCl pH 7.4, 1 mM DTT, 2 mM MgCl2, 100 mM NaCl, 10 uM 32P-DNA (so in the source), 20 ul, 10 min at 37 C; 8% PAGE in 1x TAE
Conditions: protein: recombinant, label: 5'-32P on #1

Chain of SHOC1 570-1111 (Q5VXU9 570-1111): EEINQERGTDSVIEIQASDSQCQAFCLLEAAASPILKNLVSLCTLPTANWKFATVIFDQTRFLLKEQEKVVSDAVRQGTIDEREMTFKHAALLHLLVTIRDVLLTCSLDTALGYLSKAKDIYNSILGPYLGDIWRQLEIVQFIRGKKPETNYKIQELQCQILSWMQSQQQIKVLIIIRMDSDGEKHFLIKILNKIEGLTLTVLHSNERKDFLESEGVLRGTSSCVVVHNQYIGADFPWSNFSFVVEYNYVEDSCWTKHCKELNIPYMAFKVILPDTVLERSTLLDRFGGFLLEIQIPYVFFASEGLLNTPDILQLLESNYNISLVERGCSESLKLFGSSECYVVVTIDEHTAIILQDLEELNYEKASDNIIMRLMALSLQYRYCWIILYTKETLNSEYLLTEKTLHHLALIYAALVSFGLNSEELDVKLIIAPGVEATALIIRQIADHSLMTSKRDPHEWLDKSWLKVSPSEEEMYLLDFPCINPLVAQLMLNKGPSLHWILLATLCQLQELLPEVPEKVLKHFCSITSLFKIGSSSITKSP

| Binder | binding result (single strand, 60 nt) | binding result (D-loop 1:2 2:3, invading strand 3 pairs by its 5' 20 nt, 3' 20 nt tail) |
| --- | --- | --- |
| B1 | binds |  |
| B2 |  | binds |
